# Columns and labels:
# [1] = molecular target: T1, CpNDH2 (CpNDH2-WT; MBP-CpNDH2) (Cryptosporidium parvum, UniProt F0X6E5); assay: inhibition of menadione reduction, NADH oxidation at […] nm; format: biochemical
# T1 construct: gene cgd7_1900; full-length ORF (568 predicted residues), N-terminal MBP fusion from pMAL-c5X, E. coli BL21(DE3), amylose-resin purified
# [2] = system: CC(C)=CCC/C(C)=C/CC/C(C)=C/CC/C(C)=C/CC1=C(C)C(=O)c2ccccc2C1=O; assay: purified protein; details: 400 μM NADH, pH 7.0, 25 °C, 0.1% Triton X-100, intact MBP fusion, Michaelis-Menten
# [3] = system: CC(C)N=c1cc2n(-c3ccc(Cl)cc3)c3ccccc3nc-2cc1Nc1ccc(Cl)cc1; assay: purified protein; details: 400 μM NADH, pH 7.0, 25 °C, 0.1% Triton X-100, intact MBP fusion, positive cooperativity
# [4] = system: CC1=CC(=O)c2ccccc2C1=O; assay: purified protein; details: 400 μM NADH, pH 7.0, 25 °C, 0.1% Triton X-100, Michaelis-Menten
# [5] = system: COC1=C(OC)C(=O)C(C/C=C(\C)CCC=C(C)C)=C(C)C1=O; assay: purified protein; details: 400 μM NADH, pH 7.0, 25 °C, 0.1% Triton X-100, intact MBP fusion, positive cooperativity
# T1 sequence (F0X6E5 entry or part of it): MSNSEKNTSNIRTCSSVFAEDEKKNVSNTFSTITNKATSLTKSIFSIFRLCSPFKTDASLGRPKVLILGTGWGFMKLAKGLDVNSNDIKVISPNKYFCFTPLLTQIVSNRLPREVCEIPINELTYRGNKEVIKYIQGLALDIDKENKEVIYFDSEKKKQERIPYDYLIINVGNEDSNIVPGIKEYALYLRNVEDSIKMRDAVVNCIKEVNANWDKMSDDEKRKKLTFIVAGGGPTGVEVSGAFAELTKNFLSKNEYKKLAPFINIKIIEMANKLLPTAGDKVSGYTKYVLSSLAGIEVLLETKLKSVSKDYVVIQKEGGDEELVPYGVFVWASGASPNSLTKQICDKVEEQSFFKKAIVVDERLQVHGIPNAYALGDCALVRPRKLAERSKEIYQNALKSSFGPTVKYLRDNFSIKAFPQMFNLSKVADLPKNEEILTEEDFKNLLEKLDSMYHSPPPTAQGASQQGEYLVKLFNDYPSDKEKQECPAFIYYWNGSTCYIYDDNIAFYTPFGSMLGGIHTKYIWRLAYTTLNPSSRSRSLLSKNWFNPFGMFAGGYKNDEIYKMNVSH
Molecule,IC50 [1],Km [2],K0.5 [3],Km [4],K0.5 [5]
"CC(C)/N=c1\cc2n(-c3ccc(Cl)cc3)c3ccccc3nc-2cc1Nc1ccc(Cl)cc1 [CFZ, clofazimine]",2.95 µM,,,,
CpNDH2 (CpNDH2-WT; MBP-CpNDH2) (Cryptosporidium parvum),,139.3 µM,30.0 µM,113.7 µM,7.17 µM

# Source: publication doi:10.1101/2025.10.07.680968, “Widespread genomic heterogeneity at the type II NAD(P)H dehydrogenase locus predisposes Cryptosporidium to clofazimine resistance” (bioRxiv, 2025)
